Test results published in the RNAGym collection of RNA variant scans (doi:10.1073/pnas.2313332121).
Variants at the floor of the assay were thinned out.

B1: TPR 5TU (parent)
chain: GGAUCUUCUCGAUCUAACAAAAAAGACAAAUCUGCCACAAAGCUUGAGAGCAUCUUCGGAUGCAGAGGCGGCAGCCUUCGGUGGCGCGAUAGCGCCAACGUUCUCAACUAUGACACGCAAAACGCGUGCUCCGUUGAAUGGAGUUUAUCAUG

Variants of: B1
Assay: polymerase ribozyme fitness, log enrichment relative to wild type (log ratio); higher = more active; in vitro selection for triplet polymerase activity
How it was run: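 Each subunit of a heterodimeric triplet polymerase ribozyme was mutagenized into a library by PCR, transcribed, and subjected to one round of in vitro selection, run in triplicate. Libraries were annealed with a biotinylated primer, the partner subunit and triplets, incubated frozen at −7 °C, and extended constructs were gel-excised, captured on streptavidin beads and recovered by RT-PCR. Input and output libraries were sequenced on Illumina, keeping genotypes with ≥10 input reads and ≥1 read per output. Fitness is log base 2 of genotype enrichment divided by wild-type enrichment, from inverse-variance-weighted replicate averages.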

Row | Variant | polymerase ribozyme fitness (log ratio)
1 | G67U G117A U151A | ≤ -4.2
2 | U135C U151A | ≤ -4.2
3 | G25C C105U U144C | -2.67
4 | U78A C93U | ≤ -4.2
5 | A119U U134A | -2.99
6 | U104C G124U C125A G143U | -3.85
7 | C5G C14G A49G | -3.17
8 | G48U A120U | -0.0736
9 | A73G | 0.127
10 | A40C C93A G143A | -3.22
11 | U6C A16U A17G C85U A89G | ≤ -4.2
12 | G11A C85A | -2.76
13 | C54A U56A C93A A98U A138C U151G | ≤ -4.2
14 | C32U G46U C103G U104G A107C G140C | ≤ -4.2
15 | C85A G141A | -1.85
16 | C36G C51U C54U C93G | ≤ -4.2
17 | C51A G81A A147G U148G | ≤ -4.2
18 | G84A G136U | -2.81
19 | A89U U90C G94U C114U G117U G133U | ≤ -4.2
20 | A30G A66G C108G | ≤ -4.2
21 | C72U A98U | 0.351

Row | Variant | polymerase ribozyme fitness (log ratio)
22 | C10G U61A C93A U139A | ≤ -4.2
23 | C54A G94C G141A | -3.13
24 | A21U C36A G50U U55A C57G G62A G68U C85G C103A G128A | ≤ -4.2
25 | U9G A29U U45G C75A G88U C96A G141A | ≤ -4.2
26 | A107U C118G A147U C149G U151G | ≤ -4.2
27 | A52U U53A C57A G58C A89U | 0.000593
28 | A12C C87U A115C | -1.97
29 | U45A C85U C118G A138U | -4.16
30 | A23G G86U C93U A150U | -3.88
31 | G50U G84U | -1.81
32 | C54G A147C | -1.47
33 | C5G C32U G84U | -3.82
34 | A24U A37G | -2.41
35 | G58U A89G | -0.659
36 | A24U U148C | -2.14
37 | U55G C93A A98U A142U | -3.92
38 | A3U G92A A113G G133U A142U U146G | ≤ -4.2
39 | A73G G126A | -0.377
40 | G48C C79A G86U C96U G124A | ≤ -4.2
41 | U55G U90A | ≤ -4.2
42 | U56A G62A A97G C103A | -3.45

Row | Variant | polymerase ribozyme fitness (log ratio)
43 | U6A C93G | -3.92
44 | U6A C93U | -1.6
45 | C38U | 0.0316
46 | C8G A52U C95U U104G G140U | ≤ -4.2
47 | A19G G59U C85U C95A | -1.78
48 | C38U U55A | -0.159
49 | A12C G25U U55A U56C G83C | ≤ -4.2
50 | C69G G84U A89U A122C U146C | -2.82
51 | C35G U55A C85U | ≤ -4.2
52 | C51U G86C A113G C114U A121G U151G | ≤ -4.2
53 | G86A U104G | -2.29
54 | U15G G152U | -2.98
55 | A98U A147C | 0.168
56 | A19U C87U | -0.845
57 | A52G C85G | -2.16
58 | C8U U13A A40C U44G C93G | ≤ -4.2
59 | C125U U146G | -1.15
60 | A52U A60G C76U A89U C96U | -3.8
61 | A39G A49U U55A U56A A91U | ≤ -4.2
62 | C14G A47C | -2.35
63 | C35A G59U C69G | -2.14

Row | Variant | polymerase ribozyme fitness (log ratio)
64 | G143C | -1.78
65 | C69G A121U | -2.04
66 | U55G A98G | -0.84
67 | A20C G48U G59A A119U U135A U146C | -2.07
68 | U6G G88A | -4.11
69 | U4G C14G C76G | ≤ -4.2
70 | C10U C105A | -3.59
71 | A19U G136C | -3.86
72 | A22U A41C G70C U82G | ≤ -4.2
73 | U31A A39G G94U | -2.07
74 | C5A A20G A22C C35A U77G C87A A115C G124C | ≤ -4.2
75 | U4A A19C | 0.332
76 | C69U G86U C114U G141U | ≤ -4.2
77 | G94U C116G | -0.502
78 | C8G G50A A66C G84A | ≤ -4.2
79 | A16G C27G C54G G83A G86U A97U C105U U146A | ≤ -4.2
80 | U4C C43U C85U G133A G141U | ≤ -4.2
81 | C57A C72U C99A C103G G140C | ≤ -4.2
82 | A21G A41C U56G G65A G141U | -3.42
83 | G68C C96G U139A | ≤ -4.2
84 | C51U C69G G94C U146C | -1.9
